As usually defined, the Kd is the concentration at which binding is half-saturated. Low readings indicate a tighter complex, high ones a looser complex.

Ends that are not written are not given here.

In assay [1] the target is T1, BRD4 ET domain (600–700) (human, UniProt O60885 600-700). The assay can be described thus: NMR titration.
The target in assay [2] is BRD4 bromodomain 1 (residues 43–180) (human, UniProt O60885 43-180). The assay can be described thus: NMR titration.
Assay [3] has as its target T1, BRD4 ET domain (600–700). Put plainly: MST.

B1: SARS-CoV-2 E^53−72 peptide (aa 53–72 of SARS-CoV-2 E) (peptide)
peptide: KPSFYVYSRVKNLNSSRVPD
For B1, the binding result in assay [1] is “binds”.

B2: monoacetylated SARS-CoV-2 E^K53ac peptide (aa 50–55 of SARS-CoV-2 E) (peptide)
peptide: SLVK(Ac)PS
In the case of B2, the Kd in assay [2] is > 1000 µM.

B3: FAM-SARS-CoV-2 E^55–66 peptide (peptide)
peptide: {FAM}-SFYVYSRVKNLN
B3 came in with a Kd in assay [3] of 50 µM.

B4: monoacetylated SARS-CoV-2 E^K63ac peptide (aa 60–68 of SARS-CoV-2 E) (peptide)
peptide: SRVK(Ac)NLNSS
Turning to B4, in assay [2], the Kd came out at 660 µM.
